In one assay the target is T1, mutated SDHA protein (Mus musculus, UniProt Q8K2B3, D241A).
T1 construct: host or cells: E. coli BL21 Star (DE3)
As to the kind of experiment: GzmB treatment of SDHA mutated at the putative cleavage site. The class given is biochemical. Particulars: 6 hours. How it is done: Generation of normal SDHA protein and mutated SDHA protein: Target DNA sequence of mouse normal SDHA and mutated SDHA was optimized and synthesized (GenScript). The synthesized sequence was cloned into vector pET-30a(+) with His tag for protein expression in E. coli. E. coli strain BL21 Star™(DE3) was transformed with recombinant plasmid. A single colony was inoculated into LB medium containing related antibiotic; culture was incubated in 37° C. at 200 rpm and then induced with IPTG. SDS-PAGE was used to monitor the expression. Recombinant BL21 Star™ (DE3) stored in glycerol was inoculated into TB medium containing related antibiotic and cultured at 37° C. When the OD600 reached about 1.2, cell culture was induced with IPTG at 15° C./16 h. Cells were harvested by centrifugation. Cell pellets were resuspended with lysis buffer followed by sonication. The precipitate after centrifugation was dissolved using denaturing agent. Target protein was obtained by one-step purification using Ni column. Target protein was sterilized by 0.22 μm filter before stored in aliquots. The concentration was determined by Bradford protein assay with BSA as standard. The protein purity and molecular weight were determined by standard SDS-PAGE along with Western blot confirmation. […]

The target in assay [1] is T2, SDHA (Mus musculus, UniProt Q8K2B3). In words: SDHA cleavage assay, isolated mitochondria from IECs. In kind it is biochemical. Particulars: ex vivo. Set-up: 75 ug Isolated mitochondria in 25 ul EDB buffer; from tissue; host or cells: mitochondria isolated from mouse intestinal epithelial cells. How it is done: (§1) SDHA cleavage assay: 75 ug Isolated mitochondria in 25 ul EDB buffer (10 mM HEPES, 50 mM NaCl, 2 mM MgCl2, 5 mM EGTA and 1 mM DTT) were incubated with 75 ng mouse Granzyme B at 37 degrees and then separated by SDS-PAGE^70. Mouse recombinant SDHA protein with His Tag (LS-G26030, LSBio, Seattle, WA) and mouse recombinant SDHB protein with His Tag (LS-G26026, LSBio) in EDB buffer (25 ug in 8.3 ul) were incubated with 25 ng mouse Granzyme B at 37 degrees for 90 minutes. Proteins were then separated by SDS-PAGE and blotted with anti-His Tag antibody (LS-C60077, 1:1000, LSBio) and anti-SDHA (#ab139181, 1:1000, Abcam).

The target in a further assay is T3, Recombinant SDHB (Mus musculus, UniProt Q9CQA3).
T3 construct: purchased LSBio LS-G26026
T3 sequence (Q9CQA3 31-282): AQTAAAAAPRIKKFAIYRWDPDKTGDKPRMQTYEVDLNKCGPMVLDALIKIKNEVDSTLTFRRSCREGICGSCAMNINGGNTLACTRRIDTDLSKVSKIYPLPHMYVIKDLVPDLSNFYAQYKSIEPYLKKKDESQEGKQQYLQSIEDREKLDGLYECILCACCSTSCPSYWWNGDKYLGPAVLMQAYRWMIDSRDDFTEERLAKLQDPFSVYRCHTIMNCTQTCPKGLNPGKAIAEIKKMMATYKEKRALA
As to the kind of experiment: SDHA cleavage assay, cell free, recombinant SDHB control. Particulars: 90 minutes. The class given is biochemical. How it is done:
as §1

The target of assay [2] is T2, SDHA. In words: SDHA cleavage assay, cell free, recombinant SDHA. In kind it is biochemical. The arrangement: purchased LSBio LS-G26030. Particulars: 90 minutes. As for the experimental part: as §1
The subject of assay [3] is primary colonic epithelial cells (PCECs). In words: Apoptosis of pre-treated PCECs induced by perforin and Granzyme B. Particulars: pre-treated 2 hours, then perforin and Granzyme B 4 hours. In kind it is cell-based, C57BL/6 mice. How it is done:
Cell culture: C57BL/6 primary colonic epithelial cells (PCEC, C57-6047, Cell Biologics, Chicago, IL) were cultured in compete epithelial growth medium supplemented with insulin-transferrin-selenium, epidermal growth factor, glutamine, antibiotics, antimycotics and fecal bovine serum (#M6621, Cell Biologics). Cells were routinely tested for mycoplasma contamination using MycoAlert (#LT07-318, Lonza, Switzerland). Cells were treated with Mouse active perforin (#APB317Mu01, Cloud-Clone Corp., Katy, TX) and recombinant mouse Granzyme B (#140-03, PeproTech, Rocky Hill, NJ) for 4 to 6 hours in indicated concentrations following manufacturer's recommendations. Cells were incubated with GDF-15 (#8944-GD-025, 500 pg/mL, R&D Systems, Minneapolis, MN), Tiron (#172553, 10 mM, Sigma-Aldrich, St. Louis, MO), Trolox (#648471, 0.5 mM, Sigma-Aldrich), 4-Octyl itaconate (#SML2338, 0.1 mM, Sigma-Aldrich) and NAD (#N8285, 1 mM, Sigma-Aldrich).

T2 sequence (Q8K2B3 43-664): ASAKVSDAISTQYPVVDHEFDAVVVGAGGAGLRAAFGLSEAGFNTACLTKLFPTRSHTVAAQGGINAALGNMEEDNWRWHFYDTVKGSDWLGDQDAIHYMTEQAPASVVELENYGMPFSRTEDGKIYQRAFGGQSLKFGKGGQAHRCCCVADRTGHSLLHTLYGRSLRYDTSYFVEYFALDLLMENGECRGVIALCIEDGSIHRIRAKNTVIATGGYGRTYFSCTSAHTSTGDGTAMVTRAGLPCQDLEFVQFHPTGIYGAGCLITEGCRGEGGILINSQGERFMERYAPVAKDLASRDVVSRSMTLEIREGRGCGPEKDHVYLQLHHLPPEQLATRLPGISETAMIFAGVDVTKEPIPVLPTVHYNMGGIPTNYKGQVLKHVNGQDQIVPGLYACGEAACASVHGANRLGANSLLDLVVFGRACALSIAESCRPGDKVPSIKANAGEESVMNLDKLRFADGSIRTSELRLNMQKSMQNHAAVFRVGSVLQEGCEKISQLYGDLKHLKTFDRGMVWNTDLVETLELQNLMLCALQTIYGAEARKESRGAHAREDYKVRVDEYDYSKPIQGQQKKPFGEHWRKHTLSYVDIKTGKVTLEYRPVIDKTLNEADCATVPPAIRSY
T1 sequence (Q8K2B3 43-664 D241A): as the sequence (Q8K2B3 43-664) above, with D199A counted along it

B1: GzmB: recombinant mouse Granzyme B (protein)
chain: IIGGHEVKPHSRPYMALLSIKDQQPEAICGGFLIREDFVLTAAHCEGSIINVTLGAHNIKEQEKTQQVIPMVKCIPHPDYNPKTFSNDIMLLKLKSKAKRTRAVRPLNLPRRNVNVKPGDVCYVAGWGRMAPMGKYSNTLQEVELTVQKDRECESYFKNRYNKTNQICAGDPKTKRASFRGDSGGPLVCKKVAAGIVSYGYKDGSPPRAFTKVSSFLSWIKKTMKSS
Take B1: the “proteolysis of mutated SDHA (Ile-Glu-Asp-Gly to Ile-Glu-Ala-Gly)” value with mutated SDHA protein is “prevented proteolysis”. For the same molecule, in the assay with SDHA [1], the “proteolysis of SDHA in isolated mitochondria” value is “caused proteolysis of SDHA”. For the same molecule, the “proteolysis of recombinant SDHB” value with Recombinant SDHB was “not SDHB”. The “proteolysis of recombinant SDHA” value with SDHA [2] is on record as “direct proteolysis”.

B2: GDF15: growth and differentiation factor15 that promotes the tissue tolerance (protein, UniProt Q99988 195-308, looked up)
Growth/differentiation factor …: ARARNGDHCPLGPGRCCRLHTVRASLEDLGWADWVLSPREVQVTMCIGACPSQFRAANMHAQIKTSLHRLKPDTVPAPCCVPASYNPMVLIQKTDTGVSLQTYDDLLAKDCHCI
On to B2, for which, in assay [3], the “apoptosis of PCECs induced by GranzymeB and perforin” value is recorded as “did not reduce apoptosis”.

Source of the values: patent publication US20240082183A1, “METHODS FOR PREVENTING OR TREATING CONDITIONS RELATED TO T CELL MEDIATED INTESTINAL DISORDERS” (The Regents of the University of Michigan, priority 2021, published 2024).
